# Measured values from patent US20210155689A1 (SHANGHAI PHARMAEXPLORER, published 2021).
# Where a chain is given by its changes, count along the chain named.
# T1: hFc tagged monkey LAG-3 protein (cLAG-3-hFc protein) (monkey; human)
# T1 construct: Made in HEK293 cells; also called monkey LAG-3 extracellular domain protein; not shown: human IgG Fc fragment (hFc) of the pCpC vector
# T1 chain: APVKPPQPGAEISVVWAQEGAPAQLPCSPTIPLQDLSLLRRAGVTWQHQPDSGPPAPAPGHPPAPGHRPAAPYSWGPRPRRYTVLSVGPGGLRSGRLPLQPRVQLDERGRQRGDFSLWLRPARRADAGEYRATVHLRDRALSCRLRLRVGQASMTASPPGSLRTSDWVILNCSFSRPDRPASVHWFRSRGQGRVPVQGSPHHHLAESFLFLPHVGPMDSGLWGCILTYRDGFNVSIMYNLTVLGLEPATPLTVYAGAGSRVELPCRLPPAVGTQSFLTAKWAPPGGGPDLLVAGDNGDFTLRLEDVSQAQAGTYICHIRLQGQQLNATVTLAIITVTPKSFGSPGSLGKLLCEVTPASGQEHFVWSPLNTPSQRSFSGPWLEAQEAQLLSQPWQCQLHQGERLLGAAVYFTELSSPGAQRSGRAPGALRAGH
# T2: human LAG-3 protein with hFc tag (hLAG-3-hFc protein) (human, UniProt P18627 23-450)
# T2 construct: also called immunogen 1; LAG-3 extracellular domain protein; not shown: human IgG Fc fragment (hFc) of the pCpC vector
# T2 sequence: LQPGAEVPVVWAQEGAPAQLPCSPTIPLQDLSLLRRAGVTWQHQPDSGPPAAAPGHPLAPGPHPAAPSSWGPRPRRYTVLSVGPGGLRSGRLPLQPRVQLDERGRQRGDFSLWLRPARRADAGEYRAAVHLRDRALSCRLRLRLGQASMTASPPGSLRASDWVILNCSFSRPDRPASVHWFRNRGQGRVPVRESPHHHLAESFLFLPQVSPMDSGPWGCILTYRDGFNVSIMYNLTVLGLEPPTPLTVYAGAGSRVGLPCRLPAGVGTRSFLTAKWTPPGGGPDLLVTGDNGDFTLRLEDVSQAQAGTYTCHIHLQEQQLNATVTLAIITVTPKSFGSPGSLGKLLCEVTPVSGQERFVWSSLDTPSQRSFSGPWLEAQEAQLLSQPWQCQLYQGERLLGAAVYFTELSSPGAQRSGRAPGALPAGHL
# T3: human LAG-3 ECD (antigen protein of the affinity test) (human, UniProt P18627 23-450)
# T3 sequence: T2 sequence
# T4: LAG-3-hFc protein (human LAG-3 extracellular region with hFc tag) (human, UniProt P18627 23-450)
# T4 construct: also called hLAG-3-hFc; LAG-3 protein; not shown: human IgG Fc fragment (hFc) of the pCpC vector
# T4 sequence: T2 sequence
# B1: 405B8H3 (LAG-3 mouse-human chimeric antibody) (antibody, V domains shown)
# VH: QVQLQQSGAELVRPGASVTLSCKASGYTFTDYEMHWVKQTPVHGLEWIGATDPETGNSAYNQKFKGKAIMTADKSSSTAYMELRSLTSEDSAVYYCISTGWNDWGQGTSLTVSS
# VL: DIKMTQSPSSMYASLGERVTITCKASQDINSYLSWFQQKPGKSPKTLIYRADRLLDGVPSRFSGSGSGQDYSLTISSLEYGDMGIYYCLQYDEFPYTFGGGTKLEIK
# notes: also called mouse-human chimeric antibody 405B8H3
# B2: 105F1E10 (LAG-3 mouse-human chimeric antibody) (antibody, V domains shown)
# VH: EVQLQQSGPELVKPGASVKMSCRASGYTFTDFKMHWMKQSHGKSLEWIGYIAPNNGGTAYNQKFRGKATLTVNESSNTAYMELRSLTSEDSAVYYCVDWDDVDYWGQGTTLTVSS
# VL: B1 VL with P40S, D52N, L55V, G81E, D92V, Y96L, G100A, I106L
# B3: 409B11E12 (LAG-3 mouse-human chimeric antibody) (antibody, V domains shown)
# VH: B1 VH with P41T, G56S, N57Y, M70L, S98A
# VL: B1 VL with I2L, D52N, G81E
# B4: 409D4E10 (LAG-3 mouse-human chimeric antibody) (antibody, V domains shown)
# VH: B1 VH with Y27N, G56D, S58T, M70L, A72T, S98T, T99S
# VL: B1 VL with D52N, G81E, D92N
# B5: 556F6B8 (LAG-3 mouse-human chimeric antibody) (antibody, V domains shown)
# VH: RVQLKQSGPGLVQPSQSLSITCTVSGFSLIKYGVHWVRQSPGEGLEWLGVIWRGGITDYNAAFMSRLSITKDNSKSQVFFKMNSLQADDTAIYYCAKWDGPLAMDYWGQGTSVTVSS
# VL: DIVMTQSHKFLSTSVGDRVSITCKASQDVGTTVAWYQQKPGQSPKLLIYWASTRHTGVPDRFTGSGSGTDFTLTISNVQSEDLADYFCQQYSSYPYTFGGGTKLEIK
# notes: also called 556F8B8
# B6: 405B8H3 (mouse antibody purified from hybridoma) (antibody, V domains shown)
# VH: B1 VH
# VL: B1 VL
# notes: also called mAb103-405B8H3; 405B81-13
# B7: 105F1E10 (mouse antibody purified from hybridoma) (antibody, V domains shown)
# VH: B2 VH
# VL: B1 VL with P40S, D52N, L55V, G81E, D92V, Y96L, G100A, I106L
# notes: also called mAb009-105F1E10
# B8: 409D4E10 (mouse antibody purified from hybridoma) (antibody, V domains shown)
# VH: B1 VH with Y27N, G56D, S58T, M70L, A72T, S98T, T99S
# VL: B1 VL with D52N, G81E, D92N
# notes: also called mAb112-409D4E10
# B9: 409B11E12 (mouse antibody purified from hybridoma) (antibody, V domains shown)
# VH: B1 VH with P41T, G56S, N57Y, M70L, S98A
# VL: B1 VL with I2L, D52N, G81E
# notes: also called mAb104-409B11E12
# B10: 556F6B8 (mouse antibody purified from hybridoma) (antibody, V domains shown)
# VH: B5 VH
# VL: B5 VL
# notes: also called mAb123-556F6B8
# B11: 105F1E10 mouse-human chimeric antibody (antibody, V domains shown)
# VH: B2 VH
# VL: B1 VL with P40S, D52N, L55V, G81E, D92V, Y96L, G100A, I106L
# notes: also called mAb009-105F1E10
# B12: 405B8H3 mouse-human chimeric antibody (antibody, V domains shown)
# VH: B1 VH
# VL: B1 VL
# notes: also called mAb103-405B8H3
# B13: 556F6B8 mouse-human chimeric antibody (antibody, V domains shown)
# VH: B5 VH
# VL: B5 VL
# notes: also called mAb123-556F6B8; 556F8B8
# B14: 409D4E10 mouse-human chimeric antibody (antibody, V domains shown)
# VH: B1 VH with Y27N, G56D, S58T, M70L, A72T, S98T, T99S
# VL: B1 VL with D52N, G81E, D92N
# notes: also called mAb112-409D4E10
# B15: 409B11E12 mouse-human chimeric antibody (antibody, V domains shown)
# VH: B1 VH with P41T, G56S, N57Y, M70L, S98A
# VL: B1 VL with I2L, D52N, G81E
# notes: also called mAb104-409B11E12
# Biological target: T1, hFc tagged monkey LAG-3 protein …
# Test: ELISA, cLAG-3-hFc coated; 0.0667 nM
# Protocol: The plate was sealed with plastic film and incubated overnight at 4° C. The plate was washed 2 times with the plate washing solution (PBS+0.01% Tween20) on the next day, and added with the blocking solution (PBS+0.01% Tween20+1% BSA) and blocked at room temperature for 1-2 hours. The blocking solution was poured out, and the plate was added with 50-100 μl of the antibody sample to be tested to each well, incubated at 37° C. for 1-2 hours, and washed 2-3 times with a plate washing solution (PBS+0.01% Tween20). HRP (horseradish peroxidase) labeled secondary antibody was added, and the plate was incubated at 37° C. for 1-2 hours, and washed 2-3 times with a plate washing solution (PBS+0.01% Tween20). 100 μl of TMB substrate was added to each well. After incubated at room temperature for 15-30 minutes, the plate was added with 100 μl of stop solution (1.0N HCl) to each well.
row,Binder,OD450 [OD450]
1,B1,1.96
2,B2,1
3,B3,1.91
4,B4,3.05
5,B5,2.43

# Biological target: T2, human LAG-3 protein with hFc tag …
# Test: FACS, blocks LAG-3-hFc binding to MHC II on Raji; 7.407 nM
# Protocol: (§1) The FACS reaction plate incubating the Raji cells was centrifuged to discard the supernatant. The above mixture was added as 100 μl per well to Raji cells and incubated on ice for 1-2 hours. The plate was washed twice with blocking solution (PBS, 2% fetal bovine serum) by centrifugation, added with 100 microliters of fluorescent (Alexa 488)-labeled secondary antibodies per well, and incubated on ice for 1.0 hours. The plate was washed 2-3 times by centrifugation with blocking solution (PBS, 2% fetal bovine serum), added with 100 microliters of PBS per well to suspend cells, and detected using FACS (FACS Calibur, BD) and the results were analyzed. Wherein, the IgG control was murine IgG, and the data in the table is the inhibition rate (%).
row,Binder,Inhibition rate (%)
1,B6,87.3
2,B7,81
3,B8,93
4,B9,93.4
5,B10,93.3

# Biological target: T2, human LAG-3 protein with hFc tag …
# Test: FACS, blocks LAG-3-hFc binding to MHC II on Raji; 22.222 nM
# Protocol: as §1
row,Binder,Inhibition rate (%)
1,B6,93.6
2,B7,93.6
3,B8,95.8
4,B9,95.3
5,B10,95.6

# Biological target: T3, human LAG-3 ECD (antigen protein of the …)
# Test: SPR, CM5 chip, antibody captured by anti-human Fc IgG, antigen in flow, 1:1 fit
# Protocol: First, anti-human Fc IgG was immobilized on the surface of the CM5 chip to 6000-10000 RU by amino coupling method, with FC1 as the reference channel. The coupling process was as follows: a freshly prepared 1:1 mixture of 50 mM NHS and 200 mM EDC was activated for 7 minutes, then injected with 10-50 ug/ml anti-human Fc IgG diluted in 10 mM sodium acetate ph5.0 buffer. The remaining activated sites were blocked with 1M ethanolamine. Then, HBS-EP+ buffer was used to dilute the antibody to be tested to 5 ug/ml (adjustable according to the capture level) and the antibodies were captured on the chip at a flow rate of 10 ul/min to obtain a response value of about 100˜300 RU. Then the antigen protein was diluted to 100 nM (the highest concentration was tentatively 100 nM), and flew through the chip surface at a flow rate of 30 ul/min. If enough signal value was obtained, the antigen-protein was diluted by several concentration gradients, and flew through the chip surface respectively. At the end of each cycle, the chip surface was regenerated with 10 mM Glycine at pH 1.5. The kinetic rate constant needed to be subtracted from the blank control, and the data was fitted with the global fit analysis method 1:1 combination model. The dissociation equilibrium rate constant (KD) was calculated according to the following formula: KD=kd/ka.
Binder,Kd [nM],koff [s⁻¹],kon [M⁻¹ s⁻¹]
B11,2.51,9.66e-05,38500
B12,1.96,0.000158,80400
B13,3.77,0.000459,122000

# Biological target: T4, LAG-3-hFc protein (human LAG-3 …)
# Test: FACS, inhibition of LAG-3-hFc binding to MHC II on Raji cells, antibody 0.000 nM
# Protocol: as §1
row,Binder,Inhibition rate (%)
1,B11,-32.3
2,B12,-15.6
3,B14,-1.7
4,B15,-11.8
5,B13,12.9
